These results are taken from article PMC7599888.

The target of this experiment is Sulfolobus solfataricus poly(ADP-ribose) polymerase-like thermoprotein (PARPSso) (S. solfataricus). Description: SDS-PAGE band shift with silver staining; PARPSso (3 ug, 65 pmol) mixed with Sso7 at 1:0.5, 1:1 and 1:3 mol/mol in 10 mM Na-phosphate/10 mM EDTA pH 7.5, 80 °C for 20 min (once at 45 °C); 5-12% gradient SDS-PAGE.
Chain of Sulfolobus solfataricus poly(ADP-ribose) polymerase-like thermoprotein (PARPSso) (S. solfataricus) (B3EWG9 whole entry): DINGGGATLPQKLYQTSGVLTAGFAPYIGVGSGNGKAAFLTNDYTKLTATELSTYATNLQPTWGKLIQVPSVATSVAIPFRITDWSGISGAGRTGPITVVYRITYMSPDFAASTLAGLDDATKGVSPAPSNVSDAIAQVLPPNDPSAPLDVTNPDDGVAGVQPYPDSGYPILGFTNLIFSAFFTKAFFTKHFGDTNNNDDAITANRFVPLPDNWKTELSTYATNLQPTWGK

On to “Sso7 protein (from UniProt P39476 1-64) (natural protein)”, for which the stoichiometry N (commonly a count of units in the complex or per binding partner) is 3.
